{"source": "paper PMC2734569", "about": "“Functional mapping of the fission yeast DNA polymerase δ B-subunit Cdc1 by site-directed and random pentapeptide insertion mutagenesis” (BMC Molecular Biology, 2009)", "experiment_in_all_cases": "two-hybrid; LexA-Cdc1 bait (pBTM116 or pBTM116BN) with Gal4 activation domain-Cdc27 prey (pGAD2F-Cdc27) in S. cerevisiae CTY10-5d; ONPG liquid culture beta-galactosidase assay, mean of triplicates, as percent of wild-type Cdc1", "settings_in_all_cases": "partners not purified", "key": {"Cdc1-A3": {"target": "T1, Cdc1-A3 (Schizosaccharomyces pombe, UniProt P87324 1-462, Asp296Ala)", "T1 construct": "Cdc1, S. pombe, point mutant; source: yeast two-hybrid fusion, in S. cerevisiae CTY10-5d", "T1 sequence (looked up)": "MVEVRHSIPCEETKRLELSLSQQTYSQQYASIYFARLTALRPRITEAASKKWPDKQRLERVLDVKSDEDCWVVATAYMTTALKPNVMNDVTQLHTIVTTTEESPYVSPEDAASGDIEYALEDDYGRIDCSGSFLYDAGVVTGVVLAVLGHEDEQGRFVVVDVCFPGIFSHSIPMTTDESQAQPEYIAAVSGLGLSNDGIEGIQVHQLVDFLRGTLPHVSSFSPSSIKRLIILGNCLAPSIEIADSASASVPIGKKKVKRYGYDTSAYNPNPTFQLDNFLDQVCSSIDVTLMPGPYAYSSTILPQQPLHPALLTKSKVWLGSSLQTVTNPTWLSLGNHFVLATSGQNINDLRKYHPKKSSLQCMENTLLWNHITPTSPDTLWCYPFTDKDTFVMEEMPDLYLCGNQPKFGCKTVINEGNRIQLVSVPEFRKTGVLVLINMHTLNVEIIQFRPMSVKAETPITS"}, "Cdc1-A9": {"target": "T2, Cdc1-A9 (Schizosaccharomyces pombe, UniProt P87324 1-462, Pro292Ala | Gly293Ala)", "T2 construct": "Cdc1, S. pombe, double point mutant (A1 and A2 combined); source: yeast two-hybrid fusion, in S. cerevisiae CTY10-5d", "T2 sequence (looked up)": "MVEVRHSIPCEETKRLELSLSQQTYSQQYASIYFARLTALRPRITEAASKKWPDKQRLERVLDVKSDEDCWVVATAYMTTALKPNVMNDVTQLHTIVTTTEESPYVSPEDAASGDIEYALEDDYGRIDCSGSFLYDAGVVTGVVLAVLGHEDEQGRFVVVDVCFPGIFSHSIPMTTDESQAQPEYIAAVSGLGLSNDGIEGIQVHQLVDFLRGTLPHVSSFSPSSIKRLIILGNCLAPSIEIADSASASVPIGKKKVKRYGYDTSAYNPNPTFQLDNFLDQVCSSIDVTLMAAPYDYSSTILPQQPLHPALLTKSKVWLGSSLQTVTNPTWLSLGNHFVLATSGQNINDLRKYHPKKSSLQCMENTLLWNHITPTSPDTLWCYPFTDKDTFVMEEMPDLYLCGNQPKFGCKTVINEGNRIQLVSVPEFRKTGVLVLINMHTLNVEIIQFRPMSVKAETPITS"}, "Cdc1-J15": {"target": "T3, Cdc1-J15 (Schizosaccharomyces pombe, UniProt P87324 1-462, Gln-GlyValProLeuGln-Val)", "T3 construct": "Cdc1, S. pombe, with a pentapeptide inserted after residue 203; source: yeast two-hybrid fusion, in S. cerevisiae CTY10-5d", "T3 sequence (looked up)": "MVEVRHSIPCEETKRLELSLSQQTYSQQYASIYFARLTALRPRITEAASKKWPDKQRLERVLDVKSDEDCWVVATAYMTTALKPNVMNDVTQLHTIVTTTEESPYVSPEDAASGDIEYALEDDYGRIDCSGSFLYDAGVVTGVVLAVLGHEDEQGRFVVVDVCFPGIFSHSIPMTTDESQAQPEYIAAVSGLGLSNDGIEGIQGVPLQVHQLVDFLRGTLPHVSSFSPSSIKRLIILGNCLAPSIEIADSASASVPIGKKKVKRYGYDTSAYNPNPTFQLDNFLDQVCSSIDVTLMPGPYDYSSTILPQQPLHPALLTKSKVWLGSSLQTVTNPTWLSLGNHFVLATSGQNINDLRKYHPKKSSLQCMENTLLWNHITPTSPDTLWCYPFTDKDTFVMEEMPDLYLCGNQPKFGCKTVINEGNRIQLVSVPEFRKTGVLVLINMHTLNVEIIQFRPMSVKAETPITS"}, "Cdc1-E2": {"target": "T4, Cdc1-E2 (Schizosaccharomyces pombe, UniProt P87324 1-26)", "T4 construct": "Cdc1, S. pombe, truncated after amino acid 26 by a 16 nt insertion; residues coded by the 16 nt insertion before the stop codon (printed as GlyValProLysTer); source: yeast two-hybrid fusion, in S. cerevisiae CTY10-5d", "T4 chain": "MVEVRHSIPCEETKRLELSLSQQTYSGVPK"}, "Cdc1-J16": {"target": "T5, Cdc1-J16 (Schizosaccharomyces pombe, UniProt P87324 1-462, Val-GlyGlyThrProVal-Asp)", "T5 construct": "Cdc1, S. pombe, with a pentapeptide inserted after residue 160; source: yeast two-hybrid fusion, in S. cerevisiae CTY10-5d", "T5 sequence (looked up)": "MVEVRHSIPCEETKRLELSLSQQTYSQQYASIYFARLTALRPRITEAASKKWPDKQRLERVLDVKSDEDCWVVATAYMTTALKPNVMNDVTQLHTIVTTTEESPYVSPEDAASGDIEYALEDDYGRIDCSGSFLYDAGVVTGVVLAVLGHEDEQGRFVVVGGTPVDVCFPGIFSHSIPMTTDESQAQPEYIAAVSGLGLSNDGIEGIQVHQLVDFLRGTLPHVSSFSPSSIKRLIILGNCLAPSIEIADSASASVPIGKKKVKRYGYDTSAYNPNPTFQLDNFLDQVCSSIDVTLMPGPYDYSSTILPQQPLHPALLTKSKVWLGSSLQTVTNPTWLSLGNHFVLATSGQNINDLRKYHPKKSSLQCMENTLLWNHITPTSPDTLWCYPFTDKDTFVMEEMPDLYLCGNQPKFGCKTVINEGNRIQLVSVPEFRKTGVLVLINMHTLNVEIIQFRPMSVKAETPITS"}}, "data": [{"binder": "Cdc27 (fission yeast DNA polymerase delta C-subunit) (natural protein, Schizosaccharomyces pombe, UniProt P30261 1-372, looked up, DNA polymerase delta C-subunit Cdc27, S. pombe; prey plasmid pGAD2F-Cdc27; also called pGAD2F-Cdc27; source: yeast two-hybrid fusion, in S. cerevisiae CTY10-5d) MEEWRNFLDIKVINESSLVTVDNLSLQLDISSEKAQEYLNMFYQGNDFLYPIYLIHGQPIDDEINLEIDEESQPISNFPVLQYILCDKSSLQEKQSRLKSGYKTVIFALSSAPLSDFDELLPAVYEIREKDVLYKKEDADKYGFIFNENSVPRVLKKAPSTHSPQLSVPSKTSTIDKTDTRSTEKTKGKDIFSNARNQKGNSSRKNKKAPLENHKEKEPLLPKEEKLSEQAKRERDDLKNIMQLEDESVSTTSVHDSEDDNLDSNNFQLEIGTEAKSAAPDEPQEIIKSVSGGKRRGKRKVKKYATTKDEEGFLVTKEEEVWESFSEDENISTGTSNVVRNKPTTVNIATKKKNTAQSKPQQKSIMSFFGKK", "values": [{"measurement": "two-hybrid beta-galactosidase activity, % of wild-type Cdc1", "setting": "Cdc1-A3", "result": 23, "unit": "%"}, {"measurement": "two-hybrid beta-galactosidase activity, % of wild-type Cdc1", "setting": "Cdc1-A9", "result": 58, "unit": "%"}, {"measurement": "two-hybrid beta-galactosidase activity, % of wild-type Cdc1", "setting": "Cdc1-J15", "result": 78, "unit": "%"}, {"measurement": "two-hybrid beta-galactosidase activity, % of wild-type Cdc1", "setting": "Cdc1-E2", "result": "< 1", "unit": "%"}, {"measurement": "two-hybrid beta-galactosidase activity, % of wild-type Cdc1", "setting": "Cdc1-J16", "result": "< 1", "unit": "%"}]}]}
